# Reference: the nanobody polyreactivity screen of Harvey et al. (2022)
# Assay: yeast display, Sf9 membrane polyspecificity reagent, FACS + sequencing; frameworks hold sequencing errors
# In short: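 Sorting gates, low and high (top ~1%), were placed on anti-HA fluorescence to track expression and on streptavidin fluorescence to track reagent binding. A clone's polyreactivity label is taken from the gate it came out of. The reagent was 10% biotinylated, detergent-solubilized Sf9 membrane, applied for 1 hour at 4 °C to galactose-induced yeast display cells.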
row,Sequence,polyreactivity (PSR sort gate)
1,QVQLVESGGGLVQAGGSLRLSCAASGRTFRQYAMGWYRQSPGKERELVATISGGGGNTYYADSVKGSFTISRDNAKNTVYLQMNSLKQEDTAVYYCAARRRDRPVRGYDYWGQGTQVTVSS,high polyreactivity
2,QVQLVESGGGLVQAGGSLRLSCAASGRTFRRNAMGWYRQAPGKERELVAAINTGGGTYYADSVKGRFTISRDHAKNTVYLQMNSLKPEDTAVYYCNAGTRYGSFSYVKYDWGQGTQVTVSS,high polyreactivity
3,QVQLVESGGGLVQAGGSLRLSCAASGRTFRRNAMGWYRQAPGKERELVAAIRWSSGSTYYADSVNGRFTISRDNAKNTVYLQMNSLKPEDTAVYYCAADGDWYGYIWQSDDGYDSWGQGTQVTVSS,low polyreactivity
4,QVQLVESGGGLVQAGGSLRLSCAASGRTFRRNAMGWYRQAPGKERELVAPISRGGSTNYADSVKGRFSISRDNAKNTVYLQMNSMKPEDTAVFYCAARYYYRYNYWGQGTQVTVSS,high polyreactivity
5,QVQLVESGGGLVQAGGSLRLSCAASGRTFRRNAMGWYRQAPGKERELVASINRGGGTNYADSVKGRFTISRDNAKHTVYLQMNSLKPEDTAVYYCAAGPGTYWGYDYWGQGTQVTVSS,low polyreactivity
6,QVQLVESGGGLVQAGGSLRLSCAASGRTFRRNAMGWYRQAPGKERELVATITGGGRTNYADSVKGRFTISRDNAKNTVYLQMNSLKPEDTAVYYCAAAAGSYNTGYGYWGQGTQVTVSS,high polyreactivity
7,QVQLVESGGGLVQAGGSLRLSCAASGRTFRRNAMGWYRQAPGKEWELVADISNGDSTKYADSVKGRFTISRDNAKNTVYLQMNSLKPEDTAVYYCNAQRYRVVVYNSHGWQTRNYWGQGTQVTVSS,low polyreactivity
8,QVQLVESGGGLVQAGGSLRLSCAASGRTFRRNTMGWYRQAPGQEWELVAAISSSGSSTYYADSVKGRFTISRDNAKNTVYLQMKSLKPEDTAVYYCAATGYPRFGYWGQGTQVTVSS,high polyreactivity
9,QVQLVESGGGLVQAGGSLRLSCAASGRTFRRYAMGWYRQAPGKERELVAAIRSDGSTYYADSVKGRFTISRDNAKNTVYLQMNSLKPEDTAVYYCAKVLDQRRRYDYWGQGTQVTVSS,low polyreactivity
10,QVQLVESGGGLVQAGGSLRLSCAASGRTFRRYAMGWYRQAPGKERELVAAISRSGGSTSYADSVKGRFTISRDNAKNTVYLQMKSLKPEDTAVYYCAVEVASYDRRPSEYYWGQGTQVTVSS,high polyreactivity
11,QVQLVESGGGLVQAGGSLRLSCAASGRTFRRYTMGWYRQAPGKESELVATISSGGSTYADSVKGRFTISLDNAKNTVYLQMNSLKPEDTAVYYCAARYDVAWYSKRYSWGQGTQVTVSS,high polyreactivity
12,QVQLVESGGGLVQAGGSLRLSCAASGRTFRSYAMGWYRQAPGKERELVAAITRTGSTYYADSVKGRFTISRDNAKNTVYLQMNSLKPEDTAVYYCAARFVYGYDYWGQGTEVTVSS,high polyreactivity
13,QVQLVESGGGLVQAGGSLRLSCAASGRTFRSYAMGWYRQAPGKERELVAGITTSGGSTYYADSVKGRFTISRDNAKNTVYLQMNSLKPEDTAVYYCNARSWYSFHPHDYWGQGTQVTVSS,high polyreactivity
14,QVQLVESGGGLVQAGGSLRLSCAASGRTFRSYTRGWYRQAAGKERELVAAINRGDRTYADSVKGRFTISRDNAKNTVYLQMNSLKPEDTAVYYCAARYYGGYGKQPRARYGYWGQGTQVTVSS,high polyreactivity
15,QVQLVESGGGLVQAGGSLRLSCAASGRTFRTYAMGWYRQAPGKERELVAAITTSGSSTYYADSVNGRFTISRDNAKKTVYLQMNILKPEDTAVYYCAAARAAIVPGYYSWGQGSQVTVSS,low polyreactivity
16,QVQLVESGGGLVQAGGSLRLSCAASGRTFRTYTMGWYRQAPGKERELVAAISIGGRTNYADSVKGRFTISRDNAKNTVFLQMNSLKPEDTAVYYCIAARWVPRSYGYWGLGTQVTVSS,high polyreactivity
17,QVQLVESGGGLVQAGGSLRLSCAASGRTFRTYVMGWYRQAPGKEREFVAGITWSSGSTRYADSVKGRFTISRDNAKNTVYLQMNSLKPEDTAVYYCAAKRWPGTDGYWGQGTQVTVSS,high polyreactivity
18,QVQLVESGGGLVQAGGSLRLSCAASGRTFRTYVMGWYRQAPGKERELVAAITGSGGSTYYADSVKGRFTISRDNAKNTVYLQMNSLKPEDTAVYYCAADYRWDYYWYDYAEYDYWGQGTQVTVSS,low polyreactivity
19,QVQLVESGGGLVQAGGSLRLSCAASGRTFRTYVMGWYRRAPGKEREFVAGITWSSGSTRYADSVKGRFTISRDNAKNTVYLQMNSLKPEDTAVYYCAAKRWPGTDGYWGQGTQVTVSS,high polyreactivity
20,QVQLVESGGGLVQAGGSLRLSCAASGRTFRVYAIGWYRQAPGKERELVAAISGSGGSTYYADSVKGRFTISRDNAKNTVYLQMISLKPEDTAVYYCAKGSYRSYWYRAYDYWGQGTQVTVSS,low polyreactivity
21,QVQLVESGGGLVQAGGSLRLSCAASGRTFRVYAMGWYRPAPGKERELVATITSSGGSTYYADSVKGRFTISRDNAKNTVYLQMNSLKPEDTAVYYCNVSVYYNYDSSYYYWGQGTQVTVSS,low polyreactivity

row,Sequence,polyreactivity (PSR sort gate)
1,QVQLVESGGGLVQAGGSLRLSCAASGRTFRVYAMGWYRPAPGKERELVATITSSGGSTYYADSVKGRFTISRDNAKNTVYLQMNSLKPEDTGVYYCNVSVYYNYDSSYYYWGQGTQVTVSS,low polyreactivity
2,QVQLVESGGGLVQAGGSLRLSCAASGRTFRVYAMGWYRQAPGKEREFVAAISYSGGRTYYADSVKGRFTISRDNAKNTVYLQMKSLKPEDTAVYYCAKRVPYGRGVTGYYWGQGTQVTVSS,high polyreactivity
3,QVQLVESGGGLVQAGGSLRLSCAASGRTFRVYAMGWYRQAPGKERELVAAINGRGGSTYYADSVKGRFTISRDNAKNTVYFQLNSLKPEDTAVYYCNALARTSWRMDYWGQGTQVTVSS,high polyreactivity
4,QVQLVESGGGLVQAGGSLRLSCAASGRTFRVYAMGWYRQAPGKERELVASITNDGSTYADSVKGRFTISRDNAKNTVYLQMNSLKPEDTAVYFCAARFPQWRYSRRTGERFDYWGQGTQVTVSS,low polyreactivity
5,QVQLVESGGGLVQAGGSLRLSCAASGRTFRVYAMGWYRQAPWKERELVAAISGRGGRTYYADSVKGRFTISRDNAKNTVYLQMNSLKPEDTAVYYCTADVGVYHDDYWGQGTQVTVSS,high polyreactivity
6,QVQLVESGGGLVQAGGSLRLSCAASGRTFRVYTMGWYRQAPGKERELVAAISSRGGSTYYADSVKGRFTISRDNAKNTVYLQMYSLKPEDTAVYYCAASKFRSGGYDYWGQGTQVTVSS,high polyreactivity
7,QVQLVESGGGLVQAGGSLRLSCAASGRTFRWYAMGRYRQAPGKERELVAVISRGGGSTTYADSVKGRFTISRDNAKNTVYLQMNSLKPEDTAVYYCAAQWSGSVGSRPMYYWGQGSQVTVSS,high polyreactivity
8,QVQLVESGGGLVQAGGSLRLSCAASGRTFRWYTMGWYRQAPGKEREFVAAITWSGSSTNYADSVKGRFTISRDNEKNTVYLQMNSLKPEDTAFYYCAAENRRRRDDYWGQGTQVTVSS,high polyreactivity
9,QVQLVESGGGLVQAGGSLRLSCAASGRTFRYNALGWYRPAPGKERELVASITSGGSTNYADSVKGRFTMSRDNAKNTVYLQMNSLKPEDTAVYYCASDERRPYWQHSIGSGRPFDYWGQGTQVTVSS,low polyreactivity
10,QVQLVESGGGLVQAGGSLRLSCAASGRTFRYNAMGWYRQAPGKERELVAAITQSGGSTYYADSVWGRFTISRDNAKNTVYLQMNSLKPDDTAVYYCAKVRERINYDYWGQGTQVTVSS,low polyreactivity
11,QVQLVESGGGLVQAGGSLRLSCAASGRTFRYNAMGWYRQAPGKERELVAAITWGGGSTYYADSVKGRFTISRDNAKYTVYLQMNSLKPEDTAVYYCNADYIGNYQSIYQYDYWGQGTQVTVSS,low polyreactivity
12,QVQLVESGGGLVQAGGSLRLSCAASGRTFRYNAMGWYRQAPGKERELVASISWRGGSTYYADSVKGRFTISRDNAKNTVYLPMNSLKPEDTAVYYCAADAAHSEYDDWGQGTQVTVSS,high polyreactivity
13,QVQLVESGGGLVQAGGSLRLSCAASGRTFRYNTMGWYRQAPGKERELVAALTYRGGRTYYADSVKGRFTISRDHAKNTVYLQMNSLKPEDTAVYYCARDYYGSVRFDHWGQGTQVTVSS,high polyreactivity
14,QVQLVESGGGLVQAGGSLRLSCAASGRTFRYNTMGWYRQAPGKERELVARITRSGGSTYYADSVKGRFTISRDNAKNTVYLQMNSLKPEDTAVYYCAAVPILVYRWFQSYTGDYDYWGQGTQVTVSS,low polyreactivity
15,QVQLVESGGGLVQAGGSLRLSCAASGRTFRYYAIGWYRQAPGKERELVAAISSSGASTYDAESVKGRFTISRDNAKYTVYLQMNSLKPEDTAVYYCRSGILFYSRYDYWGQGTQVTVSS,low polyreactivity
16,QVQLVESGGGLVQAGGSLRLSCAASGRTFRYYAMGWNRQAPGKESELVASISRSGGSTYYADSVKGRFTISRDNAKITVYLQMNSLKPEDTAVYYCAVGKGSHYLGFDYWGQGTQVTVSS,high polyreactivity
17,QVQLVESGGGLVQAGGSLRLSCAASGRTFRYYAMGWYRQAPGKERELVAAIDTSSGSTYYADSVKGRFTISRDNAKNTVYLQMKSLKPEDTAVYYCNATWWIPLFYDYWGQGTQVTVSS,low polyreactivity
18,QVQLVESGGGLVQAGGSLRLSCAASGRTFRYYAMGWYRQAPGKERELVAAITSGGSTYYADSVKGRFTISRDNAKNTVYLLMNSLKPEDTAAYYCAAEYVYPYWNGFDYWGQGTQVTVSS,low polyreactivity
19,QVQLVESGGGLVQAGGSLRLSCAASGRTFRYYAMGWYRQAPGKERELVAAITSGGSTYYADSVKGRFTISRDNAKNTVYLQMNSLKPEDTAVYYCNKDFTRTWTRHGDDYWGQGTQVTVSS,high polyreactivity
20,QVQLVESGGGLVQAGGSLRLSCAASGRTFRYYAMGWYRQAPGKERELVAAITVRTGSTSYADSVKGRFTISRDNAKNTVYLQMNSLKPEDTAVYYCAATSRYFQPPGYGGGRIGYGYWGQGTQVTVSS,high polyreactivity
